The text below walks through data of patent US20140308307A1 (University of Texas, published 2014).

The data set concerns the molecule itself. The data set is described as follows: X-ray crystal structure of the complex.

B1: P94S mutant F2F3 fragment of human CPSF30 (variant used in the X-ray crystal structure determination) (other)
chain: SGEKTVVCKHWLRGLCKKGDQCEFLHEYDMTKMSECYFYSKFGECSNKECPFLHIDPESKI
notes: also called F2F3 with Ser in place of Pro at position 94; F2F3-A; not shown: N-terminal hexaHis tag
Turning to B1, the binding result is given as “binds”.
